Where no end group is shown, it is not given here.
Experiments:
gram-negative bacteria = settings: cited from earlier work
gram-positive bacteria = settings: cited from earlier work
Staph aureus = assay: MIC, antimicrobial activity against Staph aureus; type: cell-based, Staphylococcus aureus
Description: (§1) The following microorganisms were used for the tests: • Escherichia coli (E. coli)—ATCC (American Type Culture Collection) No. 11303 • Pseudomonas aeruginosa—ATCC No. 15442 • Staphylococcus aureus (clinical isolates from the dermatological hospital of Kiel) • Staphylococcus epidermidis (clinical isolates from the dermatological hospital of Kiel) • Candida albicans (clinical isolates from the dermatological hospital of Kiel)
(§2) The microorganisms were cultivated on Trypticase-soy-broth (TSB) agar plates at 37° C. If they were not needed for a long time, they were stored at 4° C. For the tests, in each case a single colony of the corresponding microorganisms was inoculated in 40 ml of TSB medium and incubated overnight at 37° C. while being shaken (250 rpm). To quantify the microorganisms, the optical density of the overnight cultures was measured at 620 nm (OD620), and the colony number was determined by flattening out corresponding dilution stages.
(§3) To be able to assess the dose-dependent range of action of an antimicrobial or antibiotic protein, a liquid culture testing system was used (cf. Ganz et al., 1985). […]
(§4) These batches were incubated in a 96-hole plate (Becton Dickinson, Heidelberg) for 3 hours at 37° C. while being shaken lightly (150 rpm). […] After 24 to 36 hours of growth, the colonies were counted out.

E. coli [1] = assay: MIC, antimicrobial activity against E. coli; type: cell-based, Escherichia coli
Description: as §1, §2, §3, §4

E. coli [2] = assay: Liquid culture test, LD90 by counting colony-forming units, E. coli; type: cell-based, Escherichia coli; settings: 3 hours at 37° C., 5·10^4 KBE/ml, 10 mmol sodium phosphate buffer pH 7.4 with 1% TSB
Experimental: (§5) To be able to assess the dose-dependent range of action of an antimicrobial or antibiotic protein, a liquid culture testing system was used (cf. Ganz et al., 1985).
(§6) About 10 μl of a 1×10^7/ml dilution of the corresponding microorganisms in sodium-phosphate buffer (cf. 3.1) was added to 80 μl of sodium-phosphate buffer together with 1.25% TSB medium (v/v). 10 μl of 0.01% acetic acid was added with the corresponding concentrations of the antimicrobial or antibiotic protein (100 μg/ml, 50 μg/ml, 25 μg/ml, 12.5 μg/ml, and 6.25 μg/ml).
(§7) These batches were incubated in a 96-hole plate (Becton Dickinson, Heidelberg) for 3 hours at 37° C. while being shaken lightly (150 rpm). After the incubation time, tenfold dilution series were made from 50 μl of each of the batches with sodium-phosphate buffer and flattened out (100 μl) in each case in 3 parallel lines on TSB-agar plates. After 24 to 36 hours of growth, the colonies were counted out.
(§8) SAP-3 was incubated at the indicated concentrations at 37° C. for 3 hours with 5·10^4 KBE/ml (KBE=colony-forming units) of E. coli and Staphylococcus aureus in 100 μl of 10 mmol of sodium phosphate buffer (pH=7.4) together with 1% TSB (TSB=trypticase-soy broth). The antimicrobial activity of SAP-3 was determined by counting out the KBE on the subsequent day. 100 μl of the respective batches in tenfold dilution stages was flattened out on TSB plates in advance. […]

Staphylococcus aureus [3] = assay: Liquid culture test, LD90 by counting colony-forming units, Staphylococcus aureus; type: cell-based; settings: 3 hours at 37° C., 10 mmol sodium phosphate buffer pH 7.4 with 1% TSB
Experimental: as §5, §6, §4
as §8, with “day.” for “day. 100 μl of the respective batches in tenfold dilution stages was flattened out on TSB plates in advance.”
SAP-2 was incubated at the indicated concentrations at 37° C. for 3 hours with 1·10^5 KBE/ml of the respective microorganisms in 100 μl of 10 mmol of sodium phosphate buffer (pH=7.4) together with 1% TSB. The antimicrobial activity of SAP-2 was determined by counting out the KBE on the subsequent day. […]

E. coli [4] = settings: cited from earlier work
Klebsiella pneumoniae = settings: cited from earlier work
Staphylococcus aureus [5] = settings: cited from earlier work
Pseudomonas aeruginosa [6] = settings: cited from earlier work
Candida albicans [7] = settings: cited from earlier work
human RNA = assay: RNase activity; type: biochemical; settings: 1.2 μg of SAP-2, one hour at 37° C.
Experimental: RNase activity: 1.2 μg of SAP-2 digested about 5 μg of human RNA in one hour at 37° C.

propionibacterium acnes = assay: Liquid culture test, LD90 by counting colony-forming units, propionibacterium acnes; type: cell-based; settings: 3 hours at 37° C., 1·10^5 KBE/ml, 10 mmol sodium phosphate buffer pH 7.4 with 1% TSB
Experimental: as §5, §6, §7
(§9) SAP-2 was incubated at the indicated concentrations at 37° C. for 3 hours with 1·10^5 KBE/ml of the respective microorganisms in 100 μl of 10 mmol of sodium phosphate buffer (pH=7.4) together with 1% TSB. The antimicrobial activity of SAP-2 was determined by counting out the KBE on the subsequent day. 100 μl of the respective batches was flattened out in tenfold dilution stages on TSB plates in advance. Then, the plates were incubated at 37° C. overnight.

Pseudomonas aeruginosa [8] = assay: Liquid culture test, LD90 by counting colony-forming units, Pseudomonas aeruginosa; type: cell-based; settings: 3 hours at 37° C., 1·10^5 KBE/ml, 10 mmol sodium phosphate buffer pH 7.4 with 1% TSB
Experimental: as §5, §6, §7, §9

Candida albicans [9] = assay: Liquid culture test, LD90 by counting colony-forming units, Candida albicans; type: cell-based; settings: 3 hours at 37° C., 1·10^5 KBE/ml, 10 mmol sodium phosphate buffer pH 7.4 with 1% TSB
Experimental: as §5, §6, §7, §9

In the case of “hBD-2: second β-defensin isolated in humans, 41 amino acids, inducible peptide (GIGDPVTCLKSGAICHPVFCPRRYKQIGTCGLPGTKCCKKP; ends and bridges not checked; cysteine pairing not given here; UniProt O15263 24-64, looked up)”, the “LD90 against gram-negative bacteria” value (gram-negative bacteria) is given as 10 µg/mL and the “LD90 against gram-positive bacteria” value (gram-positive bacteria) is given as “exceeds 100 μg/ml”.

In the case of “SAP-3: human antibiotic protein of about 6 kDa isolated from lesional psoriasis scales, SEQ ID NO: 2, to be renamed hBD-3 (GIINTLQKYYCRVRGGRCAVLSCLPKEEQIGKCSTRGRKCCRRKK; listed as Homo sapiens)”, the “MIC, antimicrobial activity against Staph aureus” value (Staph aureus) is reported as <100 µg/mL, the “MIC, antimicrobial activity against E. coli” value (E. coli [1]) is reported as <20 µg/mL and the “LD90 for E. coli” value (E. coli [2]) is reported as 2.5 to 5 µg/mL. The “LD90 for Staphylococcus aureus” value (Staphylococcus aureus [3]; 5·10^4 KBE/ml) was 2.5 to 5 µg/mL.

B1: TAP: first known epithelial β-defensin, which protects the trachea of bovines, 64 amino acids (protein, UniProt P25068 1-64, looked up)
chain: MRLHHLLLALLFLVLSAWSGFTQGVGNPVSCVRNKGICVPIRCPGSMKQIGTCVGRAVKCCRKK
modifications: ends and bridges not checked
notes: first known epithelial β-defensin, which protects the trachea of bovines, 64 amino acids
For B1, the “minimum inhibition concentration against E. coli” value (E. coli [4]) is listed as 12 to 50 µg/mL, the “minimum inhibition concentration against Klebsiella pneumoniae” value (Klebsiella pneumoniae) is listed as 12 to 50 µg/mL and the “minimum inhibition concentration against Staphylococcus aureus” value (Staphylococcus aureus [5]) is listed as 12 to 50 µg/mL. For the same molecule, the “minimum inhibition concentration against Pseudomonas aeruginosa” value (Pseudomonas aeruginosa [6]) was 12 to 50 µg/mL and the “action on Candida albicans” value (Candida albicans [7]) was “destroyed”.

B2: SAP-2: human antibiotic protein of about 20 kDa isolated from lesional psoriasis scales, SEQ ID NO: 1, to be renamed RNase 7 (protein, listed as Homo sapiens)
chain: KPKGMTSSQWFKIQHMQPSPQACNSAMKNINKHTKRCKDLNTFLHEPFSSVAATCQTPKIACKNGDKNCHQSHGPVSLTMCKLTSGKYPNCRYKEKRQNKSYVVACKPPQKKDSQQFHLVPVHLDRVL
With B2 the “MIC, antimicrobial activity against Staph aureus” value (Staph aureus) was < 100 µg/mL, the “MIC, antimicrobial activity against E. coli” value (E. coli [1]) was < 50 µg/mL and the “RNase activity: human RNA digested” value (human RNA) was “about 5 μg”. For the same molecule, the “LD90 for Staphylococcus aureus” value (Staphylococcus aureus [3]; 1·10^5 KBE/ml) was 7.5 to 15 µg/mL, the “LD90 for propionibacterium acnes” value (propionibacterium acnes) was 4 to 7.5 µg/mL and the “LD90 for Pseudomonas aeruginosa” value (Pseudomonas aeruginosa [8]) was 7.5 to 15 µg/mL. The “LD90 for Candida albicans” value (Candida albicans [9]) was 15 to 30 µg/mL.
